# Test results from article PMC7970865.
# “And” between values parts separate entries of the source, which are not always exact repeats. Equal values may be shown once.
# Tests used:
# [1] = molecular target: nearly full-length recombinant FL-CSP (Plasmodium falciparum) (UniProt Q7K740); assay: BLI; Octet RED96; biotinylated FL-CSP or biotinylated NANPx6 on streptavidin biosensors, Fab in solution, kinetics buffer; global fit to 1:1 Langmuir model
# [2] = molecular target: nearly full-length recombinant FL-CSP (Plasmodium falciparum) (UniProt Q7K740); assay: ELISA
# [3] = molecular target: nearly full-length recombinant FL-CSP (Plasmodium falciparum) (UniProt Q7K740); assay: BLI; Octet RED384; FL-CSP amine-coupled to AR2G biosensors, bivalent mAb in solution, 1x kinetics buffer, 25 °C; 1:1 Langmuir model; mean of quadruplicate measurements
# [4] = molecular target: nearly full-length recombinant P. falciparum circumsporozoite protein (FL-CSP) (Plasmodium falciparum) (UniProt Q7K740); assay: BLI
substance,measurement,setting,value
Fab CIS43,Kd,[1],2 nM
same,koff,[1],4.8e-05 s⁻¹
same,kon,[1],28000 M⁻¹ s⁻¹
mAb CIS43 (antibody),ng/ml mAb needed for OD = 1,[2],< 6 ng/mL
same,Kd,[3],0.46 nM
same,koff,[3],0.000692 s⁻¹
same,kon,[3],1.5e+06 M⁻¹ s⁻¹
mAb CIS43 (intact human IgG1) (antibody),kon,[4],1.4e+06 1/(M s) (2×) and 1.7e+06 1/(M s) and 1.6e+06 1/(M s)
